According to PMC11609826 (Cancer Discovery, 2024):

Tests used:
Assay in all cases: ELISA
[1] = molecular target: B- and T-lymphocyte attenuator (BTLA), recombinant (Homo sapiens (assumed), UniProt Q7Z6A9)
[2] = molecular target: inducible T-cell costimulator (ICOS), recombinant (Homo sapiens (assumed), UniProt Q9Y6W8)
[3] = molecular target: CD28, recombinant (Homo sapiens (assumed), UniProt P10747)
[4] = molecular target: PD-1, recombinant (Homo sapiens (assumed), UniProt Q15116)
Sequence of PD-1, recombinant (Q15116 25-288): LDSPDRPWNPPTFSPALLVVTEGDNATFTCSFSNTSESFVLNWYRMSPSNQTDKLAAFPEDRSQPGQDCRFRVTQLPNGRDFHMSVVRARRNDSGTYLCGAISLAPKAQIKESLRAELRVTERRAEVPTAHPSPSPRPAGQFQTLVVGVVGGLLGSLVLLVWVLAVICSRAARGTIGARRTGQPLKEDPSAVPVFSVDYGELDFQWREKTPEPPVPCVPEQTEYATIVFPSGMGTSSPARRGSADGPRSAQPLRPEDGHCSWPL

Sequence of inducible T-cell costimulator (ICOS), recombinant (Q9Y6W8 21-199): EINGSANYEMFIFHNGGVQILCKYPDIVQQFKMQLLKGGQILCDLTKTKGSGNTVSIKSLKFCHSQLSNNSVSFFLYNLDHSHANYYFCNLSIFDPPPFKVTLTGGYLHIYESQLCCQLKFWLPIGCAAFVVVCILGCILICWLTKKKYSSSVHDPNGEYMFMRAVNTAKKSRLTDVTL

binding result [1]: no binding (tested: 1,000 ng/mL)
binding result [2]: no binding (tested: 1,000 ng/mL)
binding result [3]: no binding (tested: 1,000 ng/mL)
binding result [4]: no binding (tested: 1,000 ng/mL)
B1: Botensilimab (antibody, V domains shown)
VH: EVQLVESGGGLVKPGGSLRLSCAASGFTFSSYSMNWVRQAPGKGLEWVSSISSSSSYIYYAESVKGRFTISRDNAKNSLYLQMNSLRAEDTAVYYCARVGLFGPFDIWGQGTLVTVSS
VL: EIVLTQSPGTLSLSPGERATLSCRASQSVSRYLGWYQQKPGQAPRLLIYGASTRATGIPDRFSGSGSGTDFTLTITRLEPEDFAVYYCQQYGSSPWTFGQGTKVEIK
